Results reported in patent US20260234655A1, “Nuclear Targeted DNA Delivery and Compositions for Use in Practicing the Same” (Seawolf Therapeutics, Inc., priority 2022, published 2026).

How the values were obtained:
[1] = system: growth-arrested HepG2 cells; experiment: Pooled DTS screen in growth-arrested HepG2 cells; mRNA abundance by RNA-seq of UMIs; assay type: cell-based
Text: Library cloning. Pooled DTS libraries were designed as described above. To ensure the highest quality library production of oligos for cloning, oligo lengths were standardized to 300 bp. To accommodate this standardized length the core sequence of each DTS was embedded center-justified in a neutral fragment of random DNA sequence. The flanks of each oligo contained unique golden gate restriction enzyme digestion sites (Bsal) for cloning of double stranded DNA into screening vectors. […] The proper UMI/DTS barcode correlation (termed here the “library registry”) was determined via excision of the hTTR/eGFP fragments, re-ligation of the vector, PCR amplification of the corresponding proximal DTS and UMI regions, and sequencing on an Illumina Miseq (2×150 bp reads). […]
(§1) Quantification of mRNA abundance from pooled DTS screens. […] The PCR amplified cDNA was then library prepped (NEBNext library prep for Illumina) and sequenced on an Illumina Miseq (2×150 bp reads). Counts for each UMI were translated into the corresponding DTS using the UMI/Barcode registry and changes in abundance of each DTS were statistically analyzed using a custom R script. The log 2 fold change is calculated by comparing the RNA level in the pool vs. its expected abundance, which is derived from the abundance in the corresponding input DNA pool. […]

mouse liver = experiment: Pooled DTS pDNA-LNP i.v. in mice; mRNA abundance in liver by RNA-seq; assay type: in vivo; conditions: 1 d post-dose, pDNA-LNP 0.66 mg/kg i.v.
Experimental: LNP formulation. LNPs encapsulating nucleic acid payloads were prepared by mixing an organic solution of lipids with an aqueous solution of nucleic acid (e.g., DNA only, mRNA only, or DNA/mRNA mixtures) as described in Prud′homme et al. (J Pharm Sci 2018). Briefly, the lipidic excipients mixture (ionizable lipid, helper lipid, cholesterol, PEG-lipid and potentially other targeting moieties) is dissolved in an organic solvent. An aqueous solution of the nucleic acid is prepared in a low pH buffer of range pH 3.0-4.0. The lipid mixture is then mixed with the aqueous nucleic acid solution at a flow ratio of 1:3 (V/V) using a commercially available mixer device. […] Particle size is determined by dynamic light scattering (Horiba nanoPartica SZ-100). Encapsulation efficiency is calculated by using Quant-it RiboGreen assay kit.
as §1

B1: NFKB: benchmark DTS with NF-κB binding sites in pentameric repeat (SEQ ID NO: 140) (nucleic acid)
DNA: GGGACTTTCCAGATTACTACTGATAGGGACTTTCCAGATTACTACTGATAGGGACTTTCCAGATTACTACTGATAGGGACTTTCCAGATTACTACTGATAGGGACTTTCC
modifications: DNA nuclear targeting sequence within DNA cargo construct, further chemistry not given here
[1]
  mRNA abundance in pooled screen relative to Spacer negative control: robust increases
Mouse liver
  mRNA abundance in mouse liver compared to Spacer negative control: largest and most statistically significant increase
